The target of assay [1] is T1, Plectin-1 (Homo sapiens, UniProt Q15149). Briefly: In vitro competition assay: 111In-tPTP versus unlabeled tPTP or ncPTP on L3.6 cells. The assay is classed as binding. The arrangement: L3.6 cells were plated on a 96 well plate and incubated with 111In-tPTP and increasing log concentrations of tPTP or scrambled tetramer; endogenous in cells; host or cells: L3.6 pancreatic cancer cells. The following applies: competition with 111In-labeled tPTP, 1 hr room temperature, read-out: Ki (inhibition dissociation constant).

In assay [2] the test system is tumors from orthotopically implanted L3.6 cells. Briefly: SPECT/CT in vivo imaging of orthotopic PDAC. The following applies: labeled peptide.
Procedure: Anesthesia (1%-2% isoflurane in oxygen) was delivered throughout the imaging. CT acquisition used 200 evenly spaced projections spanning 200 degrees over approximately 5 minutes. Mice are repositioned axially for pinhole SPECT scanning 60 evenly spaced projection views were obtained over 180 degrees using two gamma cameras simultaneously. The acquisition time was approximately 30 minutes. The two cameras were fitted with 1 mm diameter tungsten pinholes. […] The reconstructed SPECT voxel size was 0.65×0.65×0.65 mm on a 60×60×60 image matrix. All SPECT images were corrected for radioactivity decay but not for gamma ray attenuation.
For assay [3], the target named is T1, Plectin-1. Briefly: Affinity of tetrameric versus monomeric plectin-1 targeted peptide. It counts as binding. The arrangement: L3.6 cells were plated on a 96 well plate and incubated with 111In-tPTP and increasing log concentrations of tPTP or scrambled tetramer; endogenous in cells; host or cells: L3.6 pancreatic cancer cells.
Assay [4] deals with T1, Plectin-1. The assay is described as follows: competition with 111In-tPTP on L3.6 cells, gamma counting.

Experimental findings from US9075059B2, “Compositions and methods for detecting plectin-1 as a biomarker for cancer” (University of Virginia Patent Foundation, priority 2009, dated 2015) are described below.

Non-standard residues stand in square brackets, D forms with d. No end group written: not given here. *: point of attachment. DOTA = O=C(O)CN1CCN(CC(=O)O)CCN(CC(=O)*)CCN(CC(=O)O)CC1; βAla = NCCC(=O)O

T1 sequence (Q15149 whole entry): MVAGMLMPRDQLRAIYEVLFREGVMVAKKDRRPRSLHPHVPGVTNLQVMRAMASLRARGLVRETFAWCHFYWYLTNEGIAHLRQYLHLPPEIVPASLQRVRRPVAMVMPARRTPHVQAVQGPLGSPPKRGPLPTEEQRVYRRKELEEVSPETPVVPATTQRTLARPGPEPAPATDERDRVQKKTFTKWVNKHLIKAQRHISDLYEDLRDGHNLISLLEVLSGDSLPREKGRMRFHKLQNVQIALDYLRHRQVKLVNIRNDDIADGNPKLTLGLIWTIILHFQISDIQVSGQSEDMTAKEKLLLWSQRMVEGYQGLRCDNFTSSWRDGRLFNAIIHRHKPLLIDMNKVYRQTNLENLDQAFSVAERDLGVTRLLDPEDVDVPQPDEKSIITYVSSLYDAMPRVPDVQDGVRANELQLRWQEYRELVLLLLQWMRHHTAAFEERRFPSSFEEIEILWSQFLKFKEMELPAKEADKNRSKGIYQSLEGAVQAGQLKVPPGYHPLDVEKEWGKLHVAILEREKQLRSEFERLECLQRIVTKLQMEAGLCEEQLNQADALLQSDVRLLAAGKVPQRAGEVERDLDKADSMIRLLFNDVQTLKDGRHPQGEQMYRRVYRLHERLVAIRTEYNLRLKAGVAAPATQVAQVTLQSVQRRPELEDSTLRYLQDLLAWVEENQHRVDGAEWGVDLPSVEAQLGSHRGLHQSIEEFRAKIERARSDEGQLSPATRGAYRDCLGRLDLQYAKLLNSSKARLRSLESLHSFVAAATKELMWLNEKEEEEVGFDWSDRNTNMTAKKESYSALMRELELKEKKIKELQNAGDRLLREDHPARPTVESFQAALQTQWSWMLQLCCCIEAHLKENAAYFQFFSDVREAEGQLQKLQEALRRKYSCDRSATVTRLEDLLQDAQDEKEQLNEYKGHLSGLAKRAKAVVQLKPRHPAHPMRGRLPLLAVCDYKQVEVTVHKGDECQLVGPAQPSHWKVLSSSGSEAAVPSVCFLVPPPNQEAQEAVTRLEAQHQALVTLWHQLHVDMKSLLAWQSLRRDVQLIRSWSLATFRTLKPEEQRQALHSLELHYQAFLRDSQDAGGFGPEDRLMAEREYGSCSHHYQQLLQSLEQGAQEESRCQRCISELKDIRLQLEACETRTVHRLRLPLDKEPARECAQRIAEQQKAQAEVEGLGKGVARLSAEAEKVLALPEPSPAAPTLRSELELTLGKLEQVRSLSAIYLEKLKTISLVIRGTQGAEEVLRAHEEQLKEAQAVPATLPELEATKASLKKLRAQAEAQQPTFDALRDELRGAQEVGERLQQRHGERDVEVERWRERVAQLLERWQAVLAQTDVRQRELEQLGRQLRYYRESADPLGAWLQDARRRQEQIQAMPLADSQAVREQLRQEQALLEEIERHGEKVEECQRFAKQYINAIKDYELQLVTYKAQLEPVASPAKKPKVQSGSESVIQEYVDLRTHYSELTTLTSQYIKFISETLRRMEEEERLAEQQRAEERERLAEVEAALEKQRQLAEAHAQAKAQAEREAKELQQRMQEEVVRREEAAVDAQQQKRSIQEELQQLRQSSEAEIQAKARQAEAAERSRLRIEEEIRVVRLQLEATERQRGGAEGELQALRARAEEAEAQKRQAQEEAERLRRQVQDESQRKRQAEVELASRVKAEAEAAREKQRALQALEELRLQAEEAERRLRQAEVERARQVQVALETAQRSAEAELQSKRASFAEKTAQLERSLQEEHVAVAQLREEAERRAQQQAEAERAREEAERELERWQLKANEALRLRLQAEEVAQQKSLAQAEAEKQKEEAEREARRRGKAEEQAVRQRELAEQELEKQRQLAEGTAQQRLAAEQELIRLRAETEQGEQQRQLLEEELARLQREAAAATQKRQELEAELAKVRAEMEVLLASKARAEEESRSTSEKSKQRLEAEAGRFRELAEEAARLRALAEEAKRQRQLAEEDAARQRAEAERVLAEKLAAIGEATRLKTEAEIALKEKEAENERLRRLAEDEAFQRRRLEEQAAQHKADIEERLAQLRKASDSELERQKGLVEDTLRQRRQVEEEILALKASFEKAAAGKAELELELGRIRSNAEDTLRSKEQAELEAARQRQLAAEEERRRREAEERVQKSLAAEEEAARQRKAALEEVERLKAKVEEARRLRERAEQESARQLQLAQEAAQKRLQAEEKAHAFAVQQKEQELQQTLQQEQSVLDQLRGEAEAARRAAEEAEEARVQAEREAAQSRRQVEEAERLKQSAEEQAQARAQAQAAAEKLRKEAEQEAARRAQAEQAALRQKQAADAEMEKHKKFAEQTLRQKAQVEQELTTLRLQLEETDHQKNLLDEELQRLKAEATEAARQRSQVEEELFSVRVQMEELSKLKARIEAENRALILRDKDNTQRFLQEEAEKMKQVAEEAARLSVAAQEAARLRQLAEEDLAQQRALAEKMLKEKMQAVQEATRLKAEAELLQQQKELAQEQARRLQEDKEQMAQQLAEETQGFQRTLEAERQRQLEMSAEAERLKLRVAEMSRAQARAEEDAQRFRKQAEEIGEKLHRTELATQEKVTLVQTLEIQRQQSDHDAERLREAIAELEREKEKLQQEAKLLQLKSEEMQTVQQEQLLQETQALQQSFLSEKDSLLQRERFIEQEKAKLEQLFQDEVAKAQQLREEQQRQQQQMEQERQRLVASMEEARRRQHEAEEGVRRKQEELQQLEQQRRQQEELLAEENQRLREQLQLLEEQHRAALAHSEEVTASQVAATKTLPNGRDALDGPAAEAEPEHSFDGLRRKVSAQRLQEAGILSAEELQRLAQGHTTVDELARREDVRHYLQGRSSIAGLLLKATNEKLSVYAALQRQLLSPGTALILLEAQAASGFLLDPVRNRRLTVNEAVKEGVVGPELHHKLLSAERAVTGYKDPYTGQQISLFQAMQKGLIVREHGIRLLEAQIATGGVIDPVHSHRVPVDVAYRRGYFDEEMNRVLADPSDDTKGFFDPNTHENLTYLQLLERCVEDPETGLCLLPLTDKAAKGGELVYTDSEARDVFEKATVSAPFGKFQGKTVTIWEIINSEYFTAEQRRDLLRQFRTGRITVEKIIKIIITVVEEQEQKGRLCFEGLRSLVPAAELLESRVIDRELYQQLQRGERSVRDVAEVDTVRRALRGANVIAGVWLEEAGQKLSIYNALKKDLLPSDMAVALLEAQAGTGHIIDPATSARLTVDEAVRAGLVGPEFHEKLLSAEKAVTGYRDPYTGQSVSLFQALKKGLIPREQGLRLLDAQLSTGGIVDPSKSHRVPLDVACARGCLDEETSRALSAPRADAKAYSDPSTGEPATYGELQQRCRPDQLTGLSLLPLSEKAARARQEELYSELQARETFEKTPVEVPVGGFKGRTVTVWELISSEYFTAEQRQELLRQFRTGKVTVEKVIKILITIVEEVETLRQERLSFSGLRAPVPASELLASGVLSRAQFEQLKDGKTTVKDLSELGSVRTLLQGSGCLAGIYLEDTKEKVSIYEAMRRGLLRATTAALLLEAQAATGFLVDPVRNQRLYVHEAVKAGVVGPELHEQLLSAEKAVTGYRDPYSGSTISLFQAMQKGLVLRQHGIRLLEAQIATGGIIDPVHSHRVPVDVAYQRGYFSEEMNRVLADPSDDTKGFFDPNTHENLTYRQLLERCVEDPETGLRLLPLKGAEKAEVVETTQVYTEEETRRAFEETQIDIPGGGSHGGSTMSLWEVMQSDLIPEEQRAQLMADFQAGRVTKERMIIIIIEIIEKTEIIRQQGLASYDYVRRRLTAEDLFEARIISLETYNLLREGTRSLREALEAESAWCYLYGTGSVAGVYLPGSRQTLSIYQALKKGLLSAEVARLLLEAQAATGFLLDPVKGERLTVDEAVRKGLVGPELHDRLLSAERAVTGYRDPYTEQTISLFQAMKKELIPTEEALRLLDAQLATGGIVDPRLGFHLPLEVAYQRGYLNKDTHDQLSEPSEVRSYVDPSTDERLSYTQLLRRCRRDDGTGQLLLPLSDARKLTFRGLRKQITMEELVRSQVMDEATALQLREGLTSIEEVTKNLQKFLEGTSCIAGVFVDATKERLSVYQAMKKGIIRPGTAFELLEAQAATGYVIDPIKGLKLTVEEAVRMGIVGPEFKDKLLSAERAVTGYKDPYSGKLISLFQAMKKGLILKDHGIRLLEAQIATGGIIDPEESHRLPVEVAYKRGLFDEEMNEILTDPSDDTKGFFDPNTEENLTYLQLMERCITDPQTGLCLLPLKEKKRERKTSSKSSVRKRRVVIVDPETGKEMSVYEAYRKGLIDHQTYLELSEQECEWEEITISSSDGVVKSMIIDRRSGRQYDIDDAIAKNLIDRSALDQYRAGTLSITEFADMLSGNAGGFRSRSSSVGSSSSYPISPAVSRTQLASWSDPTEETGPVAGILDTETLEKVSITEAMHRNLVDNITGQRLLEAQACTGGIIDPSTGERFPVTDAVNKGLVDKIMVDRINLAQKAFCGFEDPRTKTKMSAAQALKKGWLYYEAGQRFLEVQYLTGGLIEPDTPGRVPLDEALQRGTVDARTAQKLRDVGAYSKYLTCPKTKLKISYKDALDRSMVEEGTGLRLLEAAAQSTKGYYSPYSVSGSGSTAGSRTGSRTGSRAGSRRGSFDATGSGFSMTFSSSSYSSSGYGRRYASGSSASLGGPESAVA

As for “ncPTP-4(βAKHVMSKQGGS (PEG5000))KKKDOTAβA-NH2 (peptide [βAla]KHVMSKQGGS; chain Lys-Lys-Lys(DOTA)-{βAla-NH2}; not fully specified (some residues, C-terminus); also: tetramer: four chain-1 arms on lysine core, each arm's Ser joined via PEG5000 to the lysine core)”, in assay [1], the Ki came out at 2860 nM. In assay [2], KTLLPTP [monomeric peptide] came in with a time before visualization of 48 h. The same molecule showed an affinity in assay [3] of 160 nmol.

B1: ncPTP-4(β… (PEG5000))KKKDOTAβA-NH2 (peptide)
peptide: [βAla]KHVMSKQGGS-PEG5000
chain: Lys-Lys-Lys
modifications: not fully specified (some residues, C-terminus); also: tetramer: four arms joined via PEG5000 to lysine core, attachment lysines not given here
For the molecule B1, the Ki in assay [4] came to 2860 nM.

B2: tetrameric plectin-1 targeted peptide (tPTP) complex, (β…(PEG5000))4 KKKKDOTAβA-NH2 (peptide)
peptide: [βAla]KTLLPTPGGS-PEG5000
chain: KKKK(DOTA)-{βAla-NH2}
modifications: not fully specified (some residues); also: branched core [(arm)2-Lys]2-Lys-Lys(DOTA): four arms, C-terminal Ser of each joined through PEG5000 to an amino group of the core
B2 displayed a Ki in assay [4] of 830 nM.

As usually defined, the Ki is a dissociation constant, usually derived from enzyme kinetics or from competition with a known ligand.
